Measured values reported in patent publication US7129072.

Target: FGFR1 D2-D3 (residues 142-365 of human FGFR1) (human) (UniProt P11362)
Test: calculated from the X-ray crystal structure

Chain of FGFR1 D2-D3 (residues 142-365 of human FGFR1) (human) (P11362 149-359 limits assumed): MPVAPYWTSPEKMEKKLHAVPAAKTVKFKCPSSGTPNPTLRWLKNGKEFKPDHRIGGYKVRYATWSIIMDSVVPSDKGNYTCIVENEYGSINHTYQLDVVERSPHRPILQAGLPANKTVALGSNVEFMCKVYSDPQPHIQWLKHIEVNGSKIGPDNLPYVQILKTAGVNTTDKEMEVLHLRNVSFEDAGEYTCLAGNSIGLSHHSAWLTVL

- total accessible surface area buried in the complex: 2200 Å^2
Substance: FGF1 (from UniProt P05230 21-155) (ligand)
